Laboratory results from the nanobody polyreactivity screen of Harvey et al. (2022).

Test: yeast display, Sf9 membrane polyspecificity reagent, FACS + sequencing; frameworks hold sequencing errors
How it was run: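 Sorting gates, low and high (top ~1%), were placed on anti-HA fluorescence to track expression and on streptavidin fluorescence to track reagent binding. A clone's polyreactivity label is taken from the gate it came out of. The reagent was 10% biotinylated, detergent-solubilized Sf9 membrane, applied for 1 hour at 4 °C to galactose-induced yeast display cells.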

Q: For “QVQLVESGGGLVQAGGSLRLSCAASGSTFVVNVMGWYRQAPGKERELVAAITYRSGSTYYADSVKGSFTISRDNAKNTVYLQMNSLKPEDTAVYYCAAGYYSRYYVAFEYYYWGQGTQVTVSS”, which “polyreactivity (PSR sort gate)” value is on record?
A: high polyreactivity

Q: For “QVQLVESGGGLVQAGGSLRLSCAASGSTFVVYAMGWYRQAPGKERELVAAIDLSVGDTYYADSVKGRFTISRDNAKNTVYLQMNSLKPEDTAVYYCNVAVYYWRWIYGYWGQGTQVTVSS”, which “polyreactivity (PSR sort gate)” value is on record?
A: low polyreactivity

Q: With “QVQLVESGGGLVQAGGSLRLSCAASGSTFVWYAMGWYRQAPGKERELVAVINWSAGRTYYADSVKGRFTFSRDTAKNTVYLQMNSLKPEDTAVYYCATRTYYRSRTVGWGKMDYWGQGTQVTVSS” as the sequence, how does the “polyreactivity (PSR sort gate)” value read?
A: high polyreactivity

Q: Which “polyreactivity (PSR sort gate)” value does the source give for “QVQLVESGGGLVQAGGSLRLSCAASGSTFVWYDMGWYRQAPGKERELVATITSGGITTYADSVKGRFTISRDNAKNTVYLQMNSPKPEDTAVYYCNADLYYWLRYYDRNEYRGQGTQVTVSS” here?
A: low polyreactivity

Q: With “QVQLVESGGGLVQAGGSLRLSCAASGSTFVYNAMGRYRQAPVKERELVAAISSGGSTYYADSVKGRFTISRDNAKNTVYLQMNSLKPEATAVYYCNARGSWRRDKYGTYYRYDYWGQGTQVTVSS” as the sequence, how does the “polyreactivity (PSR sort gate)” value read?
A: high polyreactivity

Q: Which “polyreactivity (PSR sort gate)” value does the source give for “QVQLVESGGGLVQAGGSLRLSCAASGSTFVYNAMGWYRQAPGKERELVAAISRGGGITYYADSVKGRFTISRDNAKNTVYLQMNSLKPEDTAVYYCQYLSRGLNTYRSSQGDDDYWGQGTQVTVSS” here?
A: high polyreactivity

Q: For “QVQLVESGGGLVQAGGSLRLSCAASGSTFVYNAMGWYRQAPGKERELVASITRSGSSTYYADSVKGRFTISRDNAKNTVYLQMNSLKPEDTAVYYCAVRYSVLSNYRYYYWGQGTQVTVSS”, which “polyreactivity (PSR sort gate)” value is on record?
A: low polyreactivity

Q: With “QVQLVESGGGLVQAGGSLRLSCAASGSTFVYNARGWYRQAPGKERELVAAISRRGGSTYYADSVKGRFTISRDNAKNTVYLQMNSLKPEDTAVYYCAADQYRTNSYRYDYWGQGTQVTVSS” as the sequence, how does the “polyreactivity (PSR sort gate)” value read?
A: low polyreactivity

Q: Which “polyreactivity (PSR sort gate)” value does the source give for “QVQLVESGGGLVQAGGSLRLSCAASGSTFVYNTMGWYRQAPGKERELVAAISKSGTNTLYADSVKGRFTISRDNAKNTVYLQMNSLKPEDTAVYYCAVRSVPRWFTELDYWGQGTQVTVSS” here?
A: low polyreactivity

Q: For “QVQLVESGGGLVQAGGSLRLSCAASGSTFVYYAMGGYRQAPGKERELDAAITSSGVRTYYADSVKGRFTISRDNAKNTVYLQMNSLKPEVTAVYYCAKRSTRLYSFTYQGYGYWGQGTQVTVSS”, which “polyreactivity (PSR sort gate)” value is on record?
A: high polyreactivity

Q: For “QVQLVESGGGLVQAGGSLRLSCAASGSTFVYYAMGWYRQAPGKEREFVAAISISTGSTYYADSVKGRFTISRDNAKNTVYLQMNSLKPEDTAVYYCAVDWFLGGYDDLDYWGQGTQVTVSS”, which “polyreactivity (PSR sort gate)” value is on record?
A: low polyreactivity

Q: Which “polyreactivity (PSR sort gate)” value does the source give for “QVQLVESGGGLVQAGGSLRLSCAASGSTFVYYAMGWYRQAPGKEREFVAAISTNGGSTYYADSVKGRFTISRDNAKNTVYLQMNSLKPEDTAVYYCAARWYWGQGTQVTVSS” here?
A: high polyreactivity

Q: For “QVQLVESGGGLVQAGGSLRLSCAASGSTFVYYDMGGYRPAPGKERELVADISDSGGSTNYADSVKGRFTISRDNAKNTVYLHMNSLKPEDTAVYYCAADSADPTEYDYWGQGTQVTVSS”, which “polyreactivity (PSR sort gate)” value is on record?
A: low polyreactivity

Q: Which “polyreactivity (PSR sort gate)” value does the source give for “QVQLVESGGGLVQAGGSLRLSCAASGSTFWAYAMGWSRQAPGKERELVAAITSGGSTYADSVKGRFTISRDNAKNTVYLQMNSLKPEDTAVYYCAADVYYSGWWFDYWGQGTQVTVSS” here?
A: high polyreactivity

Q: For “QVQLVESGGGLVQAGGSLRLSCAASGSTFWAYVMGWYRQAPGKESELVAAISKSGVRTHYADSVKGRFTISRDNAKNTVYLQMNSLKPEDTAVYYCAAEWSWGPYRFDYWGQGTQVTVSS”, which “polyreactivity (PSR sort gate)” value is on record?
A: high polyreactivity

Q: With “QVQLVESGGGLVQAGGSLRLSCAASGSTFWDYTMGWYRQAPGKERELVAAINYSDGSTYYADSVKGRFTISRDNAKNTVYLQMNSLKPEDTAVYYCAAGSDPTGRRYDYWGQGTQVTVSS” as the sequence, how does the “polyreactivity (PSR sort gate)” value read?
A: low polyreactivity

Q: For “QVQLVESGGGLVQAGGSLRLSCAASGSTFWEYVMGWYRQAPGKERELVAAISDSGGSTYYADSVKGRFTISRDNAKNTVYLQMNSLKPEDTAVYYCNADWSWYNYYDFDYWGQGTQVTVSS”, which “polyreactivity (PSR sort gate)” value is on record?
A: low polyreactivity

Q: For “QVQLVESGGGLVQAGGSLRLSCAASGSTFWFYAMGWYRQAPGKERELVAANSRSSGSTYYADSVKGRFTISRDNAKNTVYLQMNSLKPEDTAVFSCAAVEPDRDYGYWGQGTQVTVSS”, which “polyreactivity (PSR sort gate)” value is on record?
A: low polyreactivity

Q: With “QVQLVESGGGLVQAGGSLRLSCAASGSTFWFYAMGWYRQAPGKERELVATITIGGRTYADSVKGRFTISRDNAKNTVYLQMNTLKPEDTAVYYCAARRGRLEYVNGRYDYWGQGTQVTVSS” as the sequence, how does the “polyreactivity (PSR sort gate)” value read?
A: low polyreactivity

Q: For “QVQLVESGGGLVQAGGSLRLSCAASGSTFWGYGMGWYRQAPGKERELVATINQSAGSTYYADSVKGRFTISRDNAKNTVYLQLNSLNPEDPAAYYCATDLIQGAAPFRYDYWGQGTQVTVSS”, which “polyreactivity (PSR sort gate)” value is on record?
A: low polyreactivity

Q: Which “polyreactivity (PSR sort gate)” value does the source give for “QVQLVESGGGLVQAGGSLRLSCAASGSTFWGYTMGWYRQAPGKERELVAAITGSGGSTNYADSVKGRFTISRDNANNTVYLQMNSLKPEDTAVYYCATQGITPSNSYDYWGQGTQVTVSS” here?
A: low polyreactivity

Q: Which “polyreactivity (PSR sort gate)” value does the source give for “QVQLVESGGGLVQAGGSLRLSCAASGSTFWHNAMGWYRTAHGKERELVAGISSIGGRTYYADSVKGRFTISRDNAKNTVYLQMNSLKQEDTAVYYCAARYRRTIPWFAPGTDHNYWGQGTQVTVSS” here?
A: high polyreactivity

Q: Which “polyreactivity (PSR sort gate)” value does the source give for “QVQLVESGGGLVQAGGSLRLSCAASGSTFWHYAMGWYRQAPGKERELVAAISSGGGRTYYADSVKGRFTISRDNAKNTVYLQMNSLKPEDTAVYYCAARYYFYDYWGQGTQVTVSS” here?
A: high polyreactivity

Q: For “QVQLVESGGGLVQAGGSLRLSCAASGSTFWINTMGWYRQAPGKERELVAAITRSGGNTYYADSVKGRFTISRDNAKNTVYLQMNSLKPEDTAVYYCAAAYTRKYVTHGYWGQGTQVTVSS”, which “polyreactivity (PSR sort gate)” value is on record?
A: high polyreactivity

Q: For “QVQLVESGGGLVQAGGSLRLSCAASGSTFWIYAMGWYRQPPGKERELVAAISWSTGRTYYADSVKGRFTISRDNAKNTVYLQMNSLKPEDTAVYYCNAGPQHNTLKLFYYWGQGTQVTVSS”, which “polyreactivity (PSR sort gate)” value is on record?
A: low polyreactivity

Q: With “QVQLVESGGGLVQAGGSLRLSCAASGSTFWLNAMGWYRQAPGKEREYVAAITWSSGSTYYADSVKGRFTISRDNAKNTVYLQMNSLKPEDTAVYYCAADGRYVRIRGDYWGQGTQVTVSS” as the sequence, how does the “polyreactivity (PSR sort gate)” value read?
A: low polyreactivity

Q: Which “polyreactivity (PSR sort gate)” value does the source give for “QVQLVESGGGLVQAGGSLRLSCAASGSTFWLYAIGWYRQAPGTERELVAAIRSGDRTNYADSVKGRFTISRDNAKKTVYLEMNSLKPEDTAVYYCAAVAYLNWTPQYYWGQGTQVTVSS” here?
A: low polyreactivity

Q: With “QVQLVESGGGLVQAGGSLRLSCAASGSTFWLYVMGWYRQAPGKERELVAAISSSGGRTYYADSVKGRFTISRDNAKNTVYLQMNSLKPEDTAVYYCNKYGTALWRYYYWGQGTQVTVSS” as the sequence, how does the “polyreactivity (PSR sort gate)” value read?
A: high polyreactivity

Q: For “QVQLVESGGGLVQAGGSLRLSCAASGSTFWNYAMGWYRQAPGKERELVAAISQRGGSTYYADSVKGRFTISRDNAKNTVYLQMNSLKPEDTAVYYCNIDYAGELDYWGQGTQVTVSS”, which “polyreactivity (PSR sort gate)” value is on record?
A: high polyreactivity

Q: Which “polyreactivity (PSR sort gate)” value does the source give for “QVQLVESGGGLVQAGGSLRLSCAASGSTFWPNAMGWYRQAPGKERELVAAITGGGGTNYADSVKGRFTISRDNAKNTVYLQMNSLKPEDTAVYYCAAKKVNSRSHVKYYYWGQGTQVTVSS” here?
A: high polyreactivity
